The source of these data is publication PMC5341102.

Series [1] is described as follows: GFP scoring of intestinal nuclei, tBHP.
Series [2] can be described thus: GFP scoring of intestinal nuclei, gsk-3 RNAi. To be noted: glycan lost, control: SKN-1B/C::GFP worms.
Series [3] is described as follows: survival on 9.125 mM tBHP, N2 background. To be noted: glycan lost; control: N2 expressing SKN-1B/C::GFP.
The nature of series [4]: in vitro kinase assay, anti-phosphoserine blot. To be noted: glycan lost; control: wild type GST-SKN-1(321–623aa) co-expressed with HIS-OGT-1.
A short description of series [5]: GFP scoring of intestinal nuclei, oga-1 background. To be noted: glycan lost; control: SKN-1B/C::GFP in oga-1(ok1207).
A short description of series [6]: worm lifespan at 20 °C, skn-1(zu67) background. To be noted: glycan lost; control: skn-1(zu67) expressing SKN-1B/C::GFP.
A short description of series [7]: worm lifespan at 20 °C, N2 background. To be noted: glycan lost; control: N2 expressing SKN-1B/C::GFP.
Series [8] is described as follows: survival on 9.125 mM tBHP, skn-1(zu67) background. To be noted: glycan lost; control: skn-1(zu67) expressing SKN-1B/C::GFP.
The nature of series [9]: GFP scoring of intestinal nuclei, normal condition. To be noted: control: N2 expressing SKN-1B/C::GFP, untreated.
Series [10] can be described thus: SKN-1 expression in ASI neurons. To be noted: control: wild type worms.
Series [11] is described as follows: anti-phospho-SKN-1(Ser483) blot. To be noted: glycan gained; control: wild type worms.

B1: SKN-1: S470A/T493A (protein)
parent chain: MGGSSRRQRSTSATRRDDKRRRRQCFSSVADDEEETTSIYGVSSIFIWILATSSLILVISSPSSNTSIQSSSYDRITTKHLLDNISPTFKMYTDSNNRNFDEVNHQHQQEQDFNGQSKYDYPQFNRPMGLRWRDDQRMMEYFMSNGPVETVPVMPILTEHPPASPFGRGPSTERPTTSSRYEYSSPSLEDIDLIDVLWRSDIAGEKGTRQVAPADQYECDLQTLTEKSTVAPLTAEENARYEDLSKGFYNGFFESFNNNQYQQKHQQQQREQIKTPTLEHPTQKAELEDDLFDEDLAQLFEDVSREEGQLNQLFDNKQQHPVINNVSLSEGIVYNQANLTEMQEMRDSCNQVSISTIPTTSTAQPETLFNVTDSQTVEQWLPTEVVPNDVFPTSNYAYIGMQNDSLQAVVSNGQIDYDHSYQSTGQTPLSPLIIGSSGRQQQTQTSPGSVTVTATATQSLFDPYHSQRHSFSDCTTDSSSTCSRLSSESPRYTSESSTGTHESRFYGKLAPSSGSRYQRSSSPRSSQSSIKIARVVPLASGQRKRGRQSKDEQLASDNELPVSAFQISEMSLSELQQVLKNESLSEYQRQLIRKIRRRGKNKVAARTCRQRRTDRHDKMSHYI
On to B1, for which the localisation_or_trafficking entry is on record as “decreases” in series [1] (glycan lost, control: SKN-1B/C::GFP in N2, tBHP-treated); “decreases” in [2]; “decreases” in series [5]. The “other: oxidative stress resistance conferred by transgene” value in series [3] and in series [8] was “abolishes” throughout. Besides, the “other: phosphorylation by GSK-3” value in series [4] was “increases”. In addition, the “other: lifespan extension by transgene” value in series [6] and in series [7] was “abolishes” throughout.

B2: SKN-1: without HIS-OGT-1 (protein)
parent chain: MGGSSRRQRSTSATRRDDKRRRRQCFSSVADDEEETTSIYGVSSIFIWILATSSLILVISSPSSNTSIQSSSYDRITTKHLLDNISPTFKMYTDSNNRNFDEVNHQHQQEQDFNGQSKYDYPQFNRPMGLRWRDDQRMMEYFMSNGPVETVPVMPILTEHPPASPFGRGPSTERPTTSSRYEYSSPSLEDIDLIDVLWRSDIAGEKGTRQVAPADQYECDLQTLTEKSTVAPLTAEENARYEDLSKGFYNGFFESFNNNQYQQKHQQQQREQIKTPTLEHPTQKAELEDDLFDEDLAQLFEDVSREEGQLNQLFDNKQQHPVINNVSLSEGIVYNQANLTEMQEMRDSCNQVSISTIPTTSTAQPETLFNVTDSQTVEQWLPTEVVPNDVFPTSNYAYIGMQNDSLQAVVSNGQIDYDHSYQSTGQTPLSPLIIGSSGRQQQTQTSPGSVTVTATATQSLFDPYHSQRHSFSDCTTDSSSTCSRLSSESPRYTSESSTGTHESRFYGKLAPSSGSRYQRSSSPRSSQSSIKIARVVPLASGQRKRGRQSKDEQLASDNELPVSAFQISEMSLSELQQVLKNESLSEYQRQLIRKIRRRGKNKVAARTCRQRRTDRHDKMSHYI
Turning to B2, the “other: phosphorylation by GSK-3” value in [4] is on record as “increases”.

B3: SKN-1: ogt-1(ok1474) (protein)
parent chain: MGGSSRRQRSTSATRRDDKRRRRQCFSSVADDEEETTSIYGVSSIFIWILATSSLILVISSPSSNTSIQSSSYDRITTKHLLDNISPTFKMYTDSNNRNFDEVNHQHQQEQDFNGQSKYDYPQFNRPMGLRWRDDQRMMEYFMSNGPVETVPVMPILTEHPPASPFGRGPSTERPTTSSRYEYSSPSLEDIDLIDVLWRSDIAGEKGTRQVAPADQYECDLQTLTEKSTVAPLTAEENARYEDLSKGFYNGFFESFNNNQYQQKHQQQQREQIKTPTLEHPTQKAELEDDLFDEDLAQLFEDVSREEGQLNQLFDNKQQHPVINNVSLSEGIVYNQANLTEMQEMRDSCNQVSISTIPTTSTAQPETLFNVTDSQTVEQWLPTEVVPNDVFPTSNYAYIGMQNDSLQAVVSNGQIDYDHSYQSTGQTPLSPLIIGSSGRQQQTQTSPGSVTVTATATQSLFDPYHSQRHSFSDCTTDSSSTCSRLSSESPRYTSESSTGTHESRFYGKLAPSSGSRYQRSSSPRSSQSSIKIARVVPLASGQRKRGRQSKDEQLASDNELPVSAFQISEMSLSELQQVLKNESLSEYQRQLIRKIRRRGKNKVAARTCRQRRTDRHDKMSHYI
For the protein B3, the localisation_or_trafficking result in [1] (glycan lost, control: N2 expressing SKN-1B/C::GFP, tBHP-treated) is “decreases”; in series [9] (glycan lost), “no change”.

B4: SKN-1: ogt-1 loss (protein)
parent chain: MGGSSRRQRSTSATRRDDKRRRRQCFSSVADDEEETTSIYGVSSIFIWILATSSLILVISSPSSNTSIQSSSYDRITTKHLLDNISPTFKMYTDSNNRNFDEVNHQHQQEQDFNGQSKYDYPQFNRPMGLRWRDDQRMMEYFMSNGPVETVPVMPILTEHPPASPFGRGPSTERPTTSSRYEYSSPSLEDIDLIDVLWRSDIAGEKGTRQVAPADQYECDLQTLTEKSTVAPLTAEENARYEDLSKGFYNGFFESFNNNQYQQKHQQQQREQIKTPTLEHPTQKAELEDDLFDEDLAQLFEDVSREEGQLNQLFDNKQQHPVINNVSLSEGIVYNQANLTEMQEMRDSCNQVSISTIPTTSTAQPETLFNVTDSQTVEQWLPTEVVPNDVFPTSNYAYIGMQNDSLQAVVSNGQIDYDHSYQSTGQTPLSPLIIGSSGRQQQTQTSPGSVTVTATATQSLFDPYHSQRHSFSDCTTDSSSTCSRLSSESPRYTSESSTGTHESRFYGKLAPSSGSRYQRSSSPRSSQSSIKIARVVPLASGQRKRGRQSKDEQLASDNELPVSAFQISEMSLSELQQVLKNESLSEYQRQLIRKIRRRGKNKVAARTCRQRRTDRHDKMSHYI
Consider B4, for which the expression_or_secretion entry in series [10] (glycan lost) was “no change”.

B5: SKN-1: T493A (protein)
parent chain: MGGSSRRQRSTSATRRDDKRRRRQCFSSVADDEEETTSIYGVSSIFIWILATSSLILVISSPSSNTSIQSSSYDRITTKHLLDNISPTFKMYTDSNNRNFDEVNHQHQQEQDFNGQSKYDYPQFNRPMGLRWRDDQRMMEYFMSNGPVETVPVMPILTEHPPASPFGRGPSTERPTTSSRYEYSSPSLEDIDLIDVLWRSDIAGEKGTRQVAPADQYECDLQTLTEKSTVAPLTAEENARYEDLSKGFYNGFFESFNNNQYQQKHQQQQREQIKTPTLEHPTQKAELEDDLFDEDLAQLFEDVSREEGQLNQLFDNKQQHPVINNVSLSEGIVYNQANLTEMQEMRDSCNQVSISTIPTTSTAQPETLFNVTDSQTVEQWLPTEVVPNDVFPTSNYAYIGMQNDSLQAVVSNGQIDYDHSYQSTGQTPLSPLIIGSSGRQQQTQTSPGSVTVTATATQSLFDPYHSQRHSFSDCTTDSSSTCSRLSSESPRYTSESSTGTHESRFYGKLAPSSGSRYQRSSSPRSSQSSIKIARVVPLASGQRKRGRQSKDEQLASDNELPVSAFQISEMSLSELQQVLKNESLSEYQRQLIRKIRRRGKNKVAARTCRQRRTDRHDKMSHYI
As to B5, the “other: phosphorylation by GSK-3” value in series [4] is “increases”.

B6: SKN-1: oga-1 loss (protein)
parent chain: MGGSSRRQRSTSATRRDDKRRRRQCFSSVADDEEETTSIYGVSSIFIWILATSSLILVISSPSSNTSIQSSSYDRITTKHLLDNISPTFKMYTDSNNRNFDEVNHQHQQEQDFNGQSKYDYPQFNRPMGLRWRDDQRMMEYFMSNGPVETVPVMPILTEHPPASPFGRGPSTERPTTSSRYEYSSPSLEDIDLIDVLWRSDIAGEKGTRQVAPADQYECDLQTLTEKSTVAPLTAEENARYEDLSKGFYNGFFESFNNNQYQQKHQQQQREQIKTPTLEHPTQKAELEDDLFDEDLAQLFEDVSREEGQLNQLFDNKQQHPVINNVSLSEGIVYNQANLTEMQEMRDSCNQVSISTIPTTSTAQPETLFNVTDSQTVEQWLPTEVVPNDVFPTSNYAYIGMQNDSLQAVVSNGQIDYDHSYQSTGQTPLSPLIIGSSGRQQQTQTSPGSVTVTATATQSLFDPYHSQRHSFSDCTTDSSSTCSRLSSESPRYTSESSTGTHESRFYGKLAPSSGSRYQRSSSPRSSQSSIKIARVVPLASGQRKRGRQSKDEQLASDNELPVSAFQISEMSLSELQQVLKNESLSEYQRQLIRKIRRRGKNKVAARTCRQRRTDRHDKMSHYI
For B6, the expression_or_secretion result in [10] (glycan gained) was “no change”. In addition, the “other: Ser483 phosphorylation” value in series [11] is recorded as “decreases”.

B7: SKN-1: oga-1(ok1207) (protein)
parent chain: MGGSSRRQRSTSATRRDDKRRRRQCFSSVADDEEETTSIYGVSSIFIWILATSSLILVISSPSSNTSIQSSSYDRITTKHLLDNISPTFKMYTDSNNRNFDEVNHQHQQEQDFNGQSKYDYPQFNRPMGLRWRDDQRMMEYFMSNGPVETVPVMPILTEHPPASPFGRGPSTERPTTSSRYEYSSPSLEDIDLIDVLWRSDIAGEKGTRQVAPADQYECDLQTLTEKSTVAPLTAEENARYEDLSKGFYNGFFESFNNNQYQQKHQQQQREQIKTPTLEHPTQKAELEDDLFDEDLAQLFEDVSREEGQLNQLFDNKQQHPVINNVSLSEGIVYNQANLTEMQEMRDSCNQVSISTIPTTSTAQPETLFNVTDSQTVEQWLPTEVVPNDVFPTSNYAYIGMQNDSLQAVVSNGQIDYDHSYQSTGQTPLSPLIIGSSGRQQQTQTSPGSVTVTATATQSLFDPYHSQRHSFSDCTTDSSSTCSRLSSESPRYTSESSTGTHESRFYGKLAPSSGSRYQRSSSPRSSQSSIKIARVVPLASGQRKRGRQSKDEQLASDNELPVSAFQISEMSLSELQQVLKNESLSEYQRQLIRKIRRRGKNKVAARTCRQRRTDRHDKMSHYI
B7: the localisation_or_trafficking entry in series [1] (glycan gained, control: N2 expressing SKN-1B/C::GFP, tBHP-treated) is given as “increases”; in series [9] (glycan gained) it was “increases”.
